Test results: the supplement of paper PMC9732359
± gives the uncertainty stated by the source.

Assay: protein stability index of a GFP-peptide fusion (yeast GPS) (PSI 1-4); higher = more stable; sorted into four equal gates, so the index is relative within each strain
Method in brief: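 Tiled 17-residue yeast protein peptides were fused downstream of GFP in a plasmid that also expresses Cherry, and the pooled library was carried in yeast. Mid-log cultures in leucine-free medium were sorted into four equal gates by GFP/Cherry fluorescence ratio, and plasmids from each gate were PCR-amplified and Illumina-sequenced, with reads assigned to strains by barcodes. The protein stability index for each peptide was each gate's read frequency times its gate number, summed.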

Sequence	protein stability index (doa10∆)	protein stability index (pdr5∆)	protein stability index (san1∆)	protein stability index (ubr1∆)
YSKSFEQFKMVSMITDH [POP1]	2.3 ± 0.12	1.97 ± 0.23	1.62 ± 0.26	1.95 ± 0.15
QVKKPRKQRVKKKTKKE [SWI1]	3.13 ± 0.24	3.37 ± 0.13	3.5 ± 0.12	3.38 ± 0.1
IEALYDDDTFSDREMAA [RPN2]	2.19 ± 0.066	1.89 ± 0.051	1.57 ± 0.1	2.13 ± 0.054
LEEVSLKWIDTASKFGK [RPL3]	1.75 ± 0.097	1.91 ± 0.092	1.8 ± 0.12	1.95 ± 0.089
GEFETKIAGIEGHLAEI [SRB2]	–	–	–	3.1 ± 0.13
EDALYLGKRSILAAAHR [PRE2]	3.42 ± 0.062	3.33 ± 0.06	3.16 ± 0.067	3.31 ± 0.051
RYFWLDHNGVPFPQYPA [ITC1]	2.22 ± 0.096	2.81 ± 0.086	3.08 ± 0.1	2.47 ± 0.06
NIFKAEMDSVSKSMKFS [CSN9]	2.58 ± 0.065	2.58 ± 0.066	2.71 ± 0.051	2.85 ± 0.044
EKIKKINYHQYISKAQN [SSN2]	1.82 ± 0.055	2.18 ± 0.041	2.07 ± 0.078	2.15 ± 0.062
GDFLDFQVHERLAPLIK [ARP7]	3.29 ± 0.16	3.29 ± 0.13	3.42 ± 0.1	3.47 ± 0.098
NESLIPLINLALIDTEF [YML103C/NUP188]	2.51 ± 0.11	1.9 ± 0.088	1.32 ± 0.15	2.1 ± 0.12
NLVKEKEALQNNIFKEF [SMC1]	3.51 ± 0.12	3.06 ± 0.12	2.99 ± 0.12	–
DLNTRISVIETIRVVTE [RPN5]	1.64 ± 0.15	2.04 ± 0.12	–	2.97 ± 0.15
YNSVAEAKKFEPTYRLV [RPS24A]	2.87 ± 0.14	2.95 ± 0.13	2.71 ± 0.18	2.74 ± 0.072
VQLPILKIIYTGLCSFD [YJL039C/NUP192]	1.41 ± 0.055	1.76 ± 0.043	1.26 ± 0.12	1.76 ± 0.058
TIITDCAFLLTKIKDAE [YJL039C/NUP192]	2.52 ± 0.071	2.78 ± 0.077	2.06 ± 0.13	2.52 ± 0.07
MSTESALSYAALILADS [RPP1A]	1.75 ± 0.062	1.97 ± 0.073	1.72 ± 0.073	1.83 ± 0.046
GTGRSGQGAFGNMCRGG [RPL4A]	3.49 ± 0.14	3.37 ± 0.078	3.33 ± 0.11	3.24 ± 0.063
LQPLEEGLIIDTDKLPI [SIN4]	2.73 ± 0.097	2.79 ± 0.074	2.75 ± 0.066	2.96 ± 0.061
MPNDNKTPNRSSTPKFT [SIR4]	2.66 ± 0.1	2.55 ± 0.19	3 ± 0.062	3.09 ± 0.086
RELILAKKQNYKLTNDE [YCG1]	3.37 ± 0.067	3.35 ± 0.053	3.23 ± 0.05	3.29 ± 0.041
LIAEETNNKKLLEKANN [SMC3]	2.41 ± 0.055	2.68 ± 0.075	2.38 ± 0.073	3.32 ± 0.063
EPILGQITLTFISELCS [YML103C/NUP188]	2.6 ± 0.06	2.32 ± 0.062	3.1 ± 0.055	3.02 ± 0.044
TLQLYMVHREFLKLANG [RGR1]	1.49 ± 0.047	1.63 ± 0.05	2.07 ± 0.058	2.28 ± 0.049
KKMMNTSDSESTLYKYL [SWI3]	2.94 ± 0.079	2.87 ± 0.075	2.79 ± 0.083	2.75 ± 0.05
NESSTFLKLVLSESPVD [SIN4]	2.1 ± 0.041	1.95 ± 0.052	2.05 ± 0.073	2.02 ± 0.046

Sequence	protein stability index (doa10∆)	protein stability index (pdr5∆)	protein stability index (san1∆)	protein stability index (ubr1∆)
NKYQIKKAVKELYEVDV [RPL25]	3.03 ± 0.077	3.15 ± 0.078	3.12 ± 0.042	3.21 ± 0.06
GKGLQSAIDVLDPLTKD [RPN2]	2.28 ± 0.069	2.56 ± 0.079	2.44 ± 0.1	2.81 ± 0.069
DEEIIQLHFSLLDEEAE [RPO21]	2.86 ± 0.078	3.01 ± 0.09	2.89 ± 0.083	2.83 ± 0.23
DHLVSSIPMGGQSINDS [ARP9]	2.78 ± 0.11	2.89 ± 0.093	3.08 ± 0.068	3.13 ± 0.1
DFIQNVGRLWDQTFPIN [ECM29]	3.13 ± 0.062	3.35 ± 0.057	3.31 ± 0.043	3.31 ± 0.045
KTKTSLLPTIKRTICKK [RPR2]	3.27 ± 0.11	3.18 ± 0.13	2.49 ± 0.18	3.29 ± 0.13
GQMAPIGTGAFDVMIDE [RPO21]	2.29 ± 0.12	2.3 ± 0.13	2.37 ± 0.12	2.54 ± 0.057
TPSSNSNSSELEPDYQA [MED1]	2.74 ± 0.13	2.96 ± 0.16	3.35 ± 0.055	3.43 ± 0.1
ETPSRLLLSPDQWYCID [ITC1]	2.8 ± 0.062	3.21 ± 0.085	3.16 ± 0.075	2.81 ± 0.051
KEDKSEAIDGNGEIKGE [SNF2]	2.23 ± 0.049	2.81 ± 0.083	2.17 ± 0.073	2.48 ± 0.084
EEEVTDQLEDLREHFKN [QCR6]	3.14 ± 0.17	3.06 ± 0.083	3.26 ± 0.09	3.29 ± 0.14
QNNKPSFVFGQAAAKPS [YLR335W/NUP2]	1.77 ± 0.05	2.12 ± 0.066	2.2 ± 0.1	2.45 ± 0.075
VPSYIHVEKERASTELS [YIL149C/MLP2]	2.33 ± 0.1	2.46 ± 0.069	2.76 ± 0.084	2.77 ± 0.054
YFKLSITSFDQDVDDAH [POP8]	1.78 ± 0.05	1.95 ± 0.075	1.78 ± 0.095	2.25 ± 0.055
TVHEMEEELKKLRDHEP [SMC4]	3.54 ± 0.27	3.26 ± 0.22	–	3.62 ± 0.2
FQHADNSSMRYGYWFDC [AAR2]	3.06 ± 0.11	2.77 ± 0.12	2.15 ± 0.089	3.14 ± 0.14
VMWGKVTRTHGNSGVVR [RPL33A]	2.83 ± 0.071	2.94 ± 0.075	2.97 ± 0.051	2.98 ± 0.07
YTETDPAKVAEEGINKF [SRP54]	3.05 ± 0.1	3.3 ± 0.097	2.9 ± 0.089	3.04 ± 0.095
TLHLVLRLRGGIIEPSL [RPL40A]	2.99 ± 0.056	2.81 ± 0.049	2.58 ± 0.056	2.77 ± 0.044
SFNIPRLTFKPWVVYLQ [YMR129W/POM152]	1.2 ± 0.055	1.29 ± 0.055	1.09 ± 0.1	1.04 ± 0.042
SLHNTEKIMENKYPELL [AAR2]	2.94 ± 0.052	3.18 ± 0.058	3 ± 0.038	2.86 ± 0.034
KNMPVIYNNIVSNIEGI [RGR1]	2.43 ± 0.055	2.69 ± 0.066	2.5 ± 0.05	2.56 ± 0.041
NGGLIHVVTREKGPQVC [RPO21]	2.93 ± 0.14	3.09 ± 0.11	2.37 ± 0.13	2.96 ± 0.12
AEKYQERSLRQKYNLLH [SNM1]	2.32 ± 0.057	2.73 ± 0.074	3.23 ± 0.067	3.12 ± 0.083
AFFTYDAGVTFNKEQLN [ECM29]	2.07 ± 0.052	3.08 ± 0.1	2.63 ± 0.083	2.58 ± 0.061
WAADSVSSRVRGYTCQF [FAS1]	2.56 ± 0.29	2.62 ± 0.15	2.71 ± 0.11	2.69 ± 0.13
